± gives the standard deviation of the averaged measurements.
Assay: total protein half-life in vivo (active degradation + dilution); higher = more stable protein
[1] = E. coli NCM3722 delta-clpP, growth: N-lim chemostat, doubling time 6 h
[2] = E. coli NCM3722 delta-hslV, growth: N-lim chemostat, doubling time 6 h
[3] = E. coli NCM3722 delta-smpB, growth: N-lim chemostat, doubling time 6 h
[4] = wild type E. coli NCM3722, growth: C-lim chemostat, doubling time 3 h
[5] = wild type E. coli NCM3722, growth: C-lim chemostat, doubling time 6 h
[6] = wild type E. coli NCM3722, growth: C-lim chemostat, doubling time 12 h
[7] = wild type E. coli NCM3722, growth: N-lim chemostat, doubling time 6 h
[8] = wild type E. coli NCM3722, growth: N-lim chemostat, doubling time 12 h
[9] = wild type E. coli NCM3722, growth: P-lim chemostat, doubling time 6 h
[10] = wild type E. coli NCM3722, growth: P-lim chemostat, doubling time 12 h
[11] = E. coli NCM3722 delta-clpP delta-lon delta-hslV, growth: N-lim chemostat, doubling time 6 h
[12] = E. coli NCM3722 delta-lon, growth: N-lim chemostat, doubling time 6 h

Sequence | total protein half-life in vivo [1] | total protein half-life in vivo [2] | total protein half-life in vivo [3] | total protein half-life in vivo [4] | total protein half-life in vivo [5] | total protein half-life in vivo [6] | total protein half-life in vivo [7] | total protein half-life in vivo [8] | total protein half-life in vivo [9] | total protein half-life in vivo [10] | total protein half-life in vivo [11] | total protein half-life in vivo [12]
MSKATEQNDKLKRAIIISAVLHVILFAALIWSSFDENIEASAGGGGGSSIDAVMVDSGAVVEQYKRMQSQESSAKRSDEQRKMKEQQAAEELREKQAAEQERLKQLEKERLAAQEQKKQAEEAAKQAELKQKQAEEAAAKAAADAKAKAEADAKAAEEAAKKAAADAKKKAEAEAAKAAAEAQKKAEAAAAALKKKAEAAEAAAAEARKKAATEAAEKAKAEAEKKAAAEKAAADKKAAAEKAAADKKAAEKAAAEKAAADKKAAAEKAAADKKAAAAKAAAEKAAAAKAAAEADDIFGELSSGKNAPKTGGGAKGNNASPAGSGNTKNNGASGADINNYAGQIKSAIESKFYDASSYAGKTCTLRIKLAPDGMLLDIKPEGGDPALCQAALAAAKLAKIPKPPSQAVYEVFKNAPLDFKP | 6.28 ± 0.72 h | 6.23 ± 0.21 h | 5.79 ± 0.58 h | 3.23 ± 0.71 h | 6.022 ± 0.019 h | 11.6 ± 1.8 h | 5.85 ± 0.2 h | 12.7 ± 1.3 h | 5.49 ± 0.21 h | 12.3 ± 0.83 h |  | 
MSKEHTTEHLRAELKSLSDTLEEVLSSSGEKSKEELSKIRSKAEQALKQSRYRLGETGDAIAKQTRVAAARADEYVRENPWTGVGIGAAIGVVLGVLLSRR | 6.08 ± 0.86 h | 5.45 ± 0.11 h | 4.81 ± 0.094 h | 2.81 ± 0.54 h | 5.64 ± 0.14 h | 9.35 ± 1.2 h | 5.47 ± 0.066 h | 9.88 ± 0.33 h | 5.55 ± 0.1 h | 10.7 ± 1.2 h | 5.56 ± 0.57 h | 6.206 ± 0.014 h
MSKHDTDTSDQHAAKRRWLNAHEEGYHKAMGNRQVQMIAIGGAIGTGLFLGAGARLQMAGPALALVYLICGLFSFFILRALGELVLHRPSSGSFVSYAREFLGEKAAYVAGWMYFINWAMTGIVDITAVALYMHYWGAFGGVPQWVFALAALTIVGTMNMIGVKWFAEMEFWFALIKVLAIVTFLVVGTVFLGSGQPLDGNTTGFHLITDNGGFFPHGLLPALVLIQGVVFAFASIEMVGTAAGECKDPQTMVPKAINSVIWRIGLFYVGSVVLLVMLLPWSAYQAGQSPFVTFFSKLGVPYIGSIMNIVVLTAALSSLNSGLYCTGRILRSMAMGGSAPSFMAKMSRQHVPYAGILATLVVYVVGVFLNYLVPSRVFEIVLNFASLGIIASWAFIIVCQMRLRKAIKEGKAADVSFKLPGAPFTSWLTLLFLLSVLVLMAFDYPNGTYTIAALPIIGILLVIGWFGVRKRVAEIHSTAPVVEEDEEKQEIVFKPETAS | 4.52 h | 4.74 ± 0.064 h |  | > 4 h |  | 11.4 h | 4.73 h | 10.3 h |  |  |  | 4.87 h
MSKIFDFVKPGVITGDDVQKVFQVAKENNFALPAVNCVGTDSINAVLETAAKVKAPVIVQFSNGGASFIAGKGVKSDVPQGAAILGAISGAHHVHQMAEHYGVPVILHTDHCAKKLLPWIDGLLDAGEKHFAATGKPLFSSHMIDLSEESLQENIEICSKYLERMSKIGMTLEIELGCTGGEEDGVDNSHMDASALYTQPEDVDYAYTELSKISPRFTIAASFGNVHGVYKPGNVVLTPTILRDSQEYVSKKHNLPHNSLNFVFHGGSGSTAQEIKDSVSYGVVKMNIDTDTQWATWEGVLNYYKANEAYLQGQLGNPKGEDQPNKKYYDPRVWLRAGQTSMIARLEKAFQELNAIDVL [P0AB71] | 5.14 ± 0.69 h | 5.06 ± 0.15 h | 4.73 ± 0.32 h | 3.19 ± 0.097 h | 5.67 ± 0.37 h | 9.46 ± 0.69 h | 4.87 ± 0.47 h | 8.4 ± 0.15 h | 5.84 ± 0.2 h | 12.19 ± 0.092 h | 5.42 ± 0.2 h | 5.07 ± 0.24 h
MSKIFEDNSLTIGHTPLVRLNRIGNGRILAKVESRNPSFSVKCRIGANMIWDAEKRGVLKPGVELVEPTSGNTGIALAYVAAARGYKLTLTMPETMSIERRKLLKALGANLVLTEGAKGMKGAIQKAEEIVASNPEKYLLLQQFSNPANPEIHEKTTGPEIWEDTDGQVDVFIAGVGTGGTLTGVSRYIKGTKGKTDLISVAVEPTDSPVIAQALAGEEIKPGPHKIQGIGAGFIPANLDLKLVDKVIGITNEEAISTARRLMEEEGILAGISSGAAVAAALKLQEDESFTNKNIVVILPSSGERYLSTALFADLFTEKELQQ [P0ABK5] | 5.14 ± 0.39 h | 4.87 ± 0.096 h | 4.53 ± 0.22 h | 3.45 ± 0.18 h | 6.1 ± 0.7 h | 11.8 ± 2.1 h | 4.68 ± 0.36 h | 8.22 ± 0.3 h | 5.72 ± 0.34 h | 13.1 ± 1.2 h | 5.312 ± 0.029 h | 5.03 ± 0.31 h
MSKIVKIIGREIIDSRGNPTVEAEVHLEGGFVGMAAAPSGASTGSREALELRDGDKSRFLGKGVTKAVAAVNGPIAQALIGKDAKDQAGIDKIMIDLDGTENKSKFGANAILAVSLANAKAAAAAKGMPLYEHIAELNGTPGKYSMPVPMMNIINGGEHADNNVDIQEFMIQPVGAKTVKEAIRMGSEVFHHLAKVLKAKGMNTAVGDEGGYAPNLGSNAEALAVIAEAVKAAGYELGKDITLAMDCAASEFYKDGKYVLAGEGNKAFTSEEFTHFLEELTKQYPIVSIEDGLDESDWDGFAYQTKVLGDKIQLVGDDLFVTNTKILKEGIEKGIANSILIKFNQIGSLTETLAAIKMAKDAGYTAVISHRSGETEDATIADLAVGTAAGQIKTGSMSRSDRVAKYNQLIRIEEALGEKAPYNGRKEIKGQA [P0A6P9] | 5.57 ± 0.75 h | 4.86 ± 0.065 h | 4.634 ± 0.024 h | 3.19 ± 0.15 h | 5.95 ± 0.21 h | 12.831 ± 0.01 h | 5.06 ± 0.19 h | 8.35 ± 0.29 h | 5.52 ± 0.69 h | 11.3 ± 0.84 h | 5.56 ± 0.57 h | 4.95 ± 0.37 h
MSKKIAVIGECMIELSEKGADVKRGFGGDTLNTSVYIARQVDPAALTVHYVTALGTDSFSQQMLDAWHGENVDTSLTQRMENRLPGLYYIETDSTGERTFYYWRNEAAAKFWLESEQSAAICEELANFDYLYLSGISLAILSPTSREKLLSLLRECRANGGKVIFDNNYRPRLWASKEETQQVYQQMLECTDIAFLTLDDEDALWGQQPVEDVIARTHNAGVKEVVVKRGADSCLVSIAGEGLVDVPAVKLPKEKVIDTTAAGDSFSAGYLAVRLTGGSAEDAAKRGHLTASTVIQYRGAIIPREAMPA | 4.46 ± 0.27 h | 4.84 ± 1.2 h | 4.53 ± 0.19 h | 2.44 ± 0.65 h | 5.96 ± 0.1 h | 11.1 ± 0.28 h | 4.64 ± 0.11 h | 8.67 ± 1.7 h | 5.5 ± 0.33 h | 10.6 ± 1.2 h | 4.86 ± 0.33 h | 
MSKLFWAMLSFITRLPVPRRWSQGLDFEHYSRGIITFPLIGLLLGAISGLVFMVLQAWCGAPLAALFSVLVLVLMTGGFHLDGLADTCDGVFSARSRDRMLEIMRDSRLGTHGGLALIFVVLAKILVLSELALRGESILASLAAACAVSRGTAALLMYRHRYAREEGLGNVFIGKIDGRQTCVTLGLAAIFAAVLLPGMHGVAAMVVTMVAIFILGQLLKRTLGGQTGDTLGAAIELGELVFLLALL | 6.699 ± 0.053 h | 6.15 ± 0.36 h | > 8 h | 3.48 ± 0.11 h | 5.85 ± 0.84 h | 12.7 ± 1.4 h | 5.87 ± 0.4 h | 11.3 h | 5.6 h | 12.4 ± 1.2 h | 7.472 ± 0.028 h | 6.52 h
